# Where a chain is given by its changes, count along the chain named.
# B1: murine antibody 208F2 (hybridoma CNCM I-4757) (antibody, V domains shown)
# VH: QVQLQQSGPELVKPGASVKMSCKASGYTFTSYYIYWVKQRPGQGLEWLGWIWPGDGSTKYNEKFKDKTTLTADKSSNTAYMFLSSLTSEDSAVYFCASPMITPNYAMDYWGQGASVTVSS
# VL: DIQMTQTTSSLSASLGDRVTISCRASQDISKYLNWYQQQPDGTIKLLIYYTSRLHSGVPSRFSGRGSGTDYSLTISNVEQEDIATYFCQQGSTLPYTFGGGTKLEIK
# notes: also called m208F2
# B2: murine antibody 213B10 (hybridoma CNCM I-4774) (antibody, V domains shown)
# VH: B1 VH with P9S, Y35H, L48I, K63R, D66G, N77S
# VL: B1 VL with S76T, V78L, T93A
# notes: also called m213B10
# B3: murine antibody 214F8 (hybridoma CNCM I-4775) (antibody, V domains shown)
# VH: B1 VH with P9S, M20L, Y35H, L48I, K63R, D66G, N77S
# VL: B1 VL with I21F, S76T, V78L, T93A
# notes: also called m214F8
# B4: murine antibody 219D6 (hybridoma CNCM I-4736) (antibody, V domains shown)
# VH: B1 VH with A16D, T28S, Y33F, Y35H, L48I, D66G, A72T, N77S, S84N
# VL: B1 VL with I44V, V78L
# notes: also called m219D6
# B5: humanized antibody hz208F2 VH3/VL3 (hz208F2 H026/L024) (antibody, human IgG1, kappa, V domains shown)
# VH: QVQLVQSGAEVKKPGASVKMSCKASGYTFTSYYIYWVKQAPGQGLEWLGWIWPGDGSTKYNEKFQGRVTLTADKSSNTAYMFLSSLRSEDTAVYFCASPMITPNYAMDYWGQGTLVTVSS
# VL: DIQMTQSPSSLSASVGDRVTISCRASQDISKYLNWYQQKPGKAPKLLIYYTSRLHSGVPSRFSGRGSGTDYSLTISNLQPEDFATYFCQQGSTLPYTFGGGTKVEIKR
# notes: also called H26/L024; first humanized form of 208F2
# B6: murine antibody 212A11 (hybridoma CNCM I-4773) (antibody, V domains shown)
# VH: B1 VH with Y35H, L48I, D66G, N77S
# VL: B1 VL with S30N, I44V, V78L
# notes: also called m212A11
# B7: chimeric antibody c208F2 (antibody, human IgG1, kappa, V domains shown)
# VH: B1 VH
# VL: DIQMTQTTSSLSASLGDRVTISCRASQDISKYLNWYQQQPDGTIKLLIYYTSRLHSGVPSRFSGRGSGTDYSLTISNVEQEDIATYFCQQGSTLPYTFGGGTKLEIKR
# B8: chimeric antibody c212A11 (antibody, human IgG1, kappa, V domains shown)
# VH: B1 VH with Y35H, L48I, D66G, N77S
# VL: B7 VL with S30N, I44V, V78L
# B9: chimeric antibody c214F8 (antibody, human IgG1, kappa)
# heavy: not shown
# light: DIQMTQTTSSLSASLGDRVTFSCRASQDISKYLNWYQQQPDGTIKLLIYYTSRLHSGVPSRFSGRGSGTDYSLTITNLEQEDIATYFCQQGSALPYTFGGGTKLEIKRTVAAPSVFIFPPSDEQLKSGTASVVCLLNNFYPREAKVQWKVDNALQSGNSQESVTEQDSKDSTYSLSSTLTLSKADYEKHKVYACEVTHQGLSSPVTKSFNRGEC
# B10: chimeric antibody c219D6 (antibody, human IgG1, kappa, V domains shown)
# VH: B1 VH with A16D, T28S, Y33F, Y35H, L48I, D66G, A72T, N77S, S84N
# VL: B7 VL with I44V, V78L
# B11: chimeric antibody c213B10 (antibody, human IgG1, kappa)
# heavy: not shown
# light: B9 light with F21I
# Biological target: T1, human IGF-1R, native, on cells (MCF-7, hIGF-1R transfected cells, primary normal human cells) (human, UniProt P08069 31-1367)
# Experiment: cell-based or functional assay
Binder,MCF7 internalisation assay: % remaining rh IGF1R [%],MCF7 internalisation assay: MFI 37°C [MFI],MCF7 internalisation assay: Δ (MFI 4°C - MFI 37°C) [MFI]
B1,27,94,261
B2,30,–,271
B3,29,111,275
B4,30,–,243

# Biological target: T2, human insulin receptor on cells (IM9 cells; hIR+ transfected cell line, NIH 3T3 IR+) (human, UniProt P06213 28-1382)
# T2 construct: whole, on cells; also called human IR
# Experiment: FACS titration on NIH 3T3 IR+ cells
row,Binder,binding result
1,B5,no binding (tested: log[M] about -7.2 (about 6e-8 M))

# Biological target: T3, rmIGF-1R protein (murine IGF-1R extracellular domain, R&D Systems cat 6630-GR/Fc) (murine, UniProt Q60751 31-936)
# T3 construct: extracellular domain; Bought reagent; not shown: Fc part implied by the catalogue number /Fc; not described
# T3 sequence (Q60751 31-936): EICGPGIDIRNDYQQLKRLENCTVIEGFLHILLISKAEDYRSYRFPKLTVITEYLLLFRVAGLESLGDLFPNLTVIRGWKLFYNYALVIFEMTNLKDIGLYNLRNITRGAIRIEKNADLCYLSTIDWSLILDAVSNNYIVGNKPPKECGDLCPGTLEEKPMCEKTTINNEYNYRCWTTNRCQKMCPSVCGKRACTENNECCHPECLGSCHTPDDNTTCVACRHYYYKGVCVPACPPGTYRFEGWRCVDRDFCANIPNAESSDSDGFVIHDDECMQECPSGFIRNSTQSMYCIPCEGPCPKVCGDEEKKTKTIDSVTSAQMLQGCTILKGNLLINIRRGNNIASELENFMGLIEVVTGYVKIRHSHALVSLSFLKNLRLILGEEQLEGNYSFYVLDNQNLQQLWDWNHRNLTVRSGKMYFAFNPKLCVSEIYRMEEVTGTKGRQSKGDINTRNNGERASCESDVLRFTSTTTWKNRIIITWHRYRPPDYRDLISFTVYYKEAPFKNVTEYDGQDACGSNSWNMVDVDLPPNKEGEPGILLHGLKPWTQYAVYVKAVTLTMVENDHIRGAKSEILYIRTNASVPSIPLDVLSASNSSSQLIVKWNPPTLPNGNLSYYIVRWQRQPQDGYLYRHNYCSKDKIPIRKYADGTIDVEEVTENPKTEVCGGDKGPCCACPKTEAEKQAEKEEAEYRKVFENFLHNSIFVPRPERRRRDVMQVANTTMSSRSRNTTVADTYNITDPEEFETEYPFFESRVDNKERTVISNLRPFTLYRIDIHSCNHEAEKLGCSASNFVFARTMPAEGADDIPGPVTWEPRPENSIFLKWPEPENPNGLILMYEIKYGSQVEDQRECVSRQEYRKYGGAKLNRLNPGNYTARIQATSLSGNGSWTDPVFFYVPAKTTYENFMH
# Experiment: ELISA on coated rmIGF-1R, SNT at 5 µg/ml
# Method: In addition three ELISAs were performed (either before or after cloning) to study the binding of antibodies on the recombinant human (hIGF-1R) and murine (mIGF-1R) proteins, and on the recombinant human Insulin Receptor (hIR) protein. […] The plates were then blocked with PBS containing 0.5% gelatin (#22151, Serva Electrophoresis GmbH, Heidelberg, Germany) for 2 h at 37° C. Once the saturation buffer discarded by flicking plates, 100 μl of each supernatant dilution were added to each well (either undiluted hybridoma supernatant either supernatant serial dilutions) and incubated for 1 h at 37° C. […] Then, ELISA plates were washed 3-times and the TMB (#UP664782, Uptima, Interchim, France) substrate is added. After a 10 min incubation time at room temperature, the reaction was stopped using 1 M sulfuric acid and the optical density at 450 nm is measured.
row,Binder,D.O 450 nm [OD 450 nm]
1,B6,0.102
2,B1,0.099
3,B2,0.127
4,B3,0.102
5,B4,0.112

# Biological target: T1, human IGF-1R, native, on cells (MCF-7, …)
# Experiment: cell-based or functional assay
# Remark: another data set of the same source
Binder,% internalization (MCF-7) [%],"ΔMFI (MFI 4°C - MFI 37°C, MCF-7, 10 µg/ml, 4 h) [MFI]"
B5,87,344
B1,88,294
B7,82,278

# Biological target: T1, human IGF-1R, native, on cells (MCF-7, …)
# Experiment: cell-based or functional assay
# Remark: another data set of the same source
Binder,inhibition of hIGF-1R phosphorylation in response to IGF-1 (MCF-7 cells) [%],"% of pIGF-1R compared to IGF-1 (MCF-7 cells, 10 µg/ml Ab) [%]"
B6,> 80,–
B8,–,< 10
B1,> 80,–
B9,–,< 10
B7,–,< 10
B2,> 80,–
B10,–,< 10
B3,> 80,–
B11,–,< 10
B4,> 80,–

# Biological target: T4, monkey IGF-1R on COS-7 cells (African green monkey kidney) (monkey (African green monkey))
# T4 construct: whole, on cells; also called monkey native IGF-1R
# Experiment: FACS on Cos-7 cells (monkey IGF1R+), SNT at 5 µg/ml
row,Binder,MFI [MFI]
1,B6,126

# Biological target: T1, human IGF-1R, native, on cells (MCF-7, …)
# Experiment: cell-based or functional assay
# Remark: another data set of the same source
Binder,"ΔMFI (MFI 4°C - MFI 37°C, MCF-7) [MFI]",ΔMFI_EC50 (MCF-7)
B8,322,2.7e-10
B9,403,2.2e-10
B7,288,1.8e-10
B10,353,4.4e-10
B11,369,2.3e-10
